Target: microtubules (MTs) polymerised from purified tubulin (Cytoskeleton, # T240) (UniProt P02550)

MT-polymerization (turbidity at 340 nm, no taxol; 2 µM tubulin, 0.2 µM Diaph2 protein), fold against the control: 6 fold
Substance: Diaph2 mutant lacking the FH2-domain (ΔFH2-Diaph2), GST-fusion protein (from UniProt O60879 1-1101) (natural protein)
